According to article PMC3901395, “Multivalent interactions of the SUMO-interaction motifs in RING finger protein 4 determine the specificity for chains of the SUMO” (Biochemical Journal, 2013):

Tested on: (SUMO2)4–GFP–HA2
Experiment: Pulse–chase analysis of (SUMO2)4–GFP–HA2 turnover in yeast
Type: cell-based, S. cerevisiae
Conditions: 2 min pulse labelling with [35S]methionine, anti-HA immunoprecipitation, phosphorimaging
Description: To correlate the strength of the interaction of RNF4 and its SIM mutants with poly-SUMOs to the activity of RNF4 in living cells, we made use of our previous findings that RNF4 is functional in yeast and disrupts PML-NBs in mammalian cells. We therefore co-expressed combinations of full-length wt RNF4 or its SIM mutants with poly-SUMO chains that retained the native N-terminus on the first SUMO moiety and were C-terminally tagged with GFP–HA in S. cerevisiae. As shown in Figures 3(A)–3(C), the poly-SUMO–GFP–HA reporter constructs were efficiently targeted for degradation. Compared with the control transformants not expressing RNF4, the levels of di-SUMO2 were reduced to approximately 55%, and this effect was enhanced if the chain was composed of three or four SUMOs (45% and 43% of control levels respectively). […]
Concentrated di-SUMO2-/Delta1N11 (10 mg/ml) in crystallization […] buffer was used for crystallization experiments by hanging-drop […] vapour diffusion. Crystals grew in a solution of 0.1 M Tris/HCl, […] pH 8.0, 28 % PEG 350 MME (Qiagen) and 0.05 % dioxane within […] 2–4 days at room temperature (21 ◦ C). […]

B1: RNF4 FL: full-length human RNF4 (RING finger protein 4); FLAG-tagged in yeast, HA-tagged in HeLa cells (protein)
chain: MSTRKRRGGAINSRQAQKRTREATSTPEISLEAEPIELVETAGDEIVDLTCESLEPVVVDLTHNDSVVIVDERRRPRRNARRLPQDHADSCVVSSDDEELSRDRDVYVTTHTPRNARDEGATGLRPSGTVSCPICMDGYSEIVQNGRLIVSTECGHVFCSQCLRDSLKNANTCPTCRKKINHKRYHPIYI
modifications: left off: GST, end not stated, cleaved
notes: full-length human RNF4 (RING finger protein 4); FLAG-tagged in yeast, HA-tagged in HeLa cells
  turnover of linear tetra-SUMO2 reporter, pulse–chase: degraded upon coexpression of RNF4
